{
  "source": "patent US20050282239A1",
  "about": "“Cell-permeable enzyme activation reporter that can be loaded in a high throughput and gentle manner” (priority 2003, published 2005)",
  "key": {"[1]": {"target": "T1, PKB (Homo sapiens, UniProt P31749)", "T1 construct": "endogenous in cells; host or cells: HT1080 cells; HT1080/PTEN cells (engineered to over-express wild type PTEN, PKB itself not transfected)", "T1 sequence (P31749 whole entry)": "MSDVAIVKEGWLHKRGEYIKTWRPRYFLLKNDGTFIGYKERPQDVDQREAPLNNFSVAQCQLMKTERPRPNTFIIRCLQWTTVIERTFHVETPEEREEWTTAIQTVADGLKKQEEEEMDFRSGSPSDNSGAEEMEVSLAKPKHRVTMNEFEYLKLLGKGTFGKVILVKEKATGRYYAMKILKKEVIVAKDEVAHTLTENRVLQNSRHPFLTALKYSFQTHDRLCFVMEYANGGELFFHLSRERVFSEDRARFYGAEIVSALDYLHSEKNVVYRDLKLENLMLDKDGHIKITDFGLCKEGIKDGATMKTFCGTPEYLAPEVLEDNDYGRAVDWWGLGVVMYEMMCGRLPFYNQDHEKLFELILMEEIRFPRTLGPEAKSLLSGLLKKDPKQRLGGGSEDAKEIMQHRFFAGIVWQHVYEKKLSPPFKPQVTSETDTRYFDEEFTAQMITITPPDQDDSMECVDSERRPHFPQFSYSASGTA", "experiment": "CACE: intracellular phosphorylation of PKB substrate in HT1080 cells", "format": "cell-based", "conditions": "microinjected", "text": "Since the properties of F-PKB (SEQ ID NO:17) microinjected into HT1080 cells have been well characterized, experiments were undertaken to compare the fate of F-PKB-C loaded as F-PKB-C-SS-TAT (SEQ ID NO:16) into HT1080 cells to that of the microinjected F-PKB (SEQ ID NO:17). When microinjected, the percentage of phosphorylated F-PKB depended on the relative, steady-state levels of both the kinases and phosphatases. This observation is shown in electrophoretic traces from cells loaded with F-PKB-C-SS-TAT (1 μM) (FIG. 6). A single asterisk denotes the migration time of F-PKB, and a double asterisk denotes the migration time of phosphorylated F-PKB from cells on the day of the experiment.\n(§1) CACE has been previously described (Sims, Meredith et al. 1998; Meredith, Sims et al. 2000; Li, Wu et al. 2001). Briefly, cells were placed on an inverted fluorescence microscope stage (Diaphot 300, Nikon, Japan) and maintained at 37° C. with an objective heater (Bioptechs; Butler, Pa.) prior to lysis unless stated otherwise. The cells were continually washed with ECB maintained at 37° C. (unless otherwise indicated) with a flow rate of 1 ml/min and a total chamber volume of 0.5 ml. The inlet of a capillary (30 μm I.D., 360 μm O.D., 75 cm long) was positioned 10 μm above the cell. The inverted microscope was coupled to a pulsed Nd:YAG laser and a CE system (Sims, 1998). The CACE-based assay was performed as previously described (U, 2001; Meredith, 2000). Cells were always maintained in ECB when analyzed by the CACE.\nCE was performed as described (Sims, Meredith et al. 1998), with the following modifications. The inner walls of the capillaries (30 μm I.D., 360 μm O.D.) were coated with poly(acrylate) (Wang, Hu et al. 2003). The outlet of the capillary was held at a negative potential of 18-21 kV, and the inlet reservoir was held at ground potential. Under these conditions, the current through the capillary was typically ˜36 μA. Solutions of standards were loaded into the capillary by gravitational fluid flow. The loaded volume was calculated from Poiseulle's equation and from contributions by spontaneous fluid displacement and diffusion (Weinberger, 2000; Fishman, 1994; Crank, 1989). To estimate the number of moles of peptide in an unknown solution or within a cell, the peak area from the electrophoretic trace of the solution or the cell was compared to that of a standard of known concentration separated by electrophoresis on the same day. A 1 pL cell volume and 100% peptide recovery was assumed in calculating intracellular peptide concentration (Meredith, Sims et al. 2000; Sims, Meredith et al. 1998). Analytes were detected by laser-induced fluorescence (Sims, Meredith et al. 1998).\nCells were incubated at room temperature for 5 minutes in 1% bovine serum albumin (BSA) in ECB, washed in ECB, and then incubated for 5 minutes at room temperature with a substrate conjugated to TAT(49-57). The cells were then washed with 1% BSA in ECB. Cells loaded with the disulfide conjugate were placed in supplement DMEM (10% FCS, 4 mM L-glutamine, 100 U/mL penicillin and 100 μg/mL streptomycin) and incubated at 37° C. in 5% CO2 for 20 minutes. Cells loaded with the photolabile conjugate were placed in supplemented DMEM and incubated at 37° C. in 5% CO2 for 10 minutes (unless stated otherwise) and were then illuminated with a UV light source for 10 seconds (a radiant energy/unit area of 2 kJ/m^2). The supplemented DMEM was exchanged and the cells were incubated another 10 minutes at 37° C. in 5% CO2. Just prior to analysis the cells were washed into ECB."}, "[2]": {"system": "CamKII", "experiment": "CACE: intracellular phosphorylation of CamKII substrate in HT1080 cells", "format": "cell-based, human", "experimental": "To determine whether the detached peptide substrates were in the cytosol and accessible to kinases, the intracellular phosphorylation of the translocated cargo was studied. In the initial experiment, F-CamKII-C-SS-TAT (SEQ ID NO:15) at 750 nM extracellular concentration was loaded into HT1080 cells. The cells were incubated with ionomycin (500 nM) for 15 min to increase the intracellular concentration of free Ca^2+ and activate the CamKII enzyme (Worrell and Frizzell 1991). […] The migration time of the second peak was identical to that of phosphorylated F-CamKII-C loaded into cells. 52+3% (mean±SEM) (n=5) of the F-CamKII-C was phosphorylated as determined by comparison of the peak areas. At least half of the F-CamKII-C was in the cytosol and accessible to the kinase. For these cells the average number of moles per cell was ˜2×10^−20 which is equivalent to a cytosolic concentration of ˜100 nM.\nas §1\nCE was performed as described (Sims, Meredith et al. 1998), with the following modifications. […] The loaded volume was calculated from Poiseulle's equation and from contributions by spontaneous fluid displacement and diffusion (Weinberger, 2000; Fishman, 1994; Crank, 1989). […] Analytes were detected by laser-induced fluorescence (Sims, Meredith et al. 1998). […]"}, "[3]": {"system": "HT1080 cells", "experiment": "CACE single-cell analysis: loading and release of cargo", "format": "cell-based, human"}},
  "note": "Ends that are not written are not given here.",
  "data": [
    {"substance": "Gly Arg Pro Arg Ala Ala Thr Phe Ala Glu Gly (GRPRAATFAEG-NH2; not fully specified (N-terminus); printed as Gly Arg Pro Arg Ala Ala Thr Phe Ala Glu Gly; also: fluorescein label, position not given here) [F-PKB, fluorescein-labeled substrate for protein kinase B]", "values": [
      {"measurement": "peptide phosphorylated at steady state", "setting": "[1]", "value": "approximately 70%"},
      {"measurement": "time to steady state of phosphorylation", "setting": "[1]", "value": "less than 2 min"}
    ]},
    {"substance": "KKALHRQETVDALCRKKRRQRRR [F-CamKII-C-SS-TAT]", "values": [
      {"measurement": "F-CamKII-C phosphorylated (mean±SEM)", "setting": "[2]; 750 nM extracellular, ionomycin 500 nM 15 min, n=5", "value": "52+3%"},
      {"measurement": "average number of moles per cell", "setting": "[3]; 750 nM extracellular, ionomycin-treated cells", "value": "~2e-20", "unit": "mol"},
      {"measurement": "cytosolic concentration", "setting": "[3]; 750 nM extracellular, ionomycin-treated cells, 1 pL cell volume assumed", "value": "~100", "unit": "nM"}
    ]},
    {"substance": "KKALHRQETVDALCRKKRRQRRR [F-CamKII-PLL-TAT]", "values": [
      {"measurement": "total F-CamKII phosphorylated", "setting": "[2]; 300 nM extracellular, ionomycin 500 nM 15 min, n=3", "value": "67±17", "unit": "%"},
      {"measurement": "average concentration of F-CamKII in the cytosol", "setting": "[3]; 300 nM extracellular", "value": 180, "unit": "nM"},
      {"measurement": "detectable F-CamKII per cell", "setting": "[3]; 300 nM extracellular, n=3", "value": "1.8e-19 ± 1.9e-19", "unit": "mol"}
    ]},
    {"substance": "Lys Lys Ala Leu His Arg Gln Glu Thr Val Asp Ala Leu Cys (KKALHRQETVDALC-NH2; not fully specified (N-terminus); printed as Lys Lys Ala Leu His Arg Gln Glu Thr Val Asp Ala Leu Cys; also: fluorescein label, position not given here) [F-CamKII-C, fluorescein-labeled CamKII substrate with added cysteine]", "values": [
      {"measurement": "phosphorylation in unstimulated cells", "setting": "[2]; HT1080 cells, no constitutive CamKII activity", "value": "little to no phosphorylation"}
    ]}
  ]
}
